Reference: patent publication US5969101

Columns and labels:
[1] = target: c-Abl wild type, full length

Substance	relative transforming activity, colonies in soft agar of Rat1/P185 BCR-Abl cells (P185 BCR-Abl) [%]	No. of Agar Colonies (per 10^4 cells) (agar colonies per 10^4 cells) (c-Abl K290R)	No. of Agar Colonies (per 10^4 cells) (agar colonies per 10^4 cells) [1]
HA-tagged Abi-2Δ1-100 (pCGN/abi-2Δ1-100)	70	–	–
HA-tagged Abi-2Δ1-157 (pCGN/abi-2Δ1-157)	–	3	563
